Where a chain is given by its changes, count along the chain named. Numbers in names are those of the source. Where two headings read alike, the source gives them in different places. Numbered stars: 1 amine (or outer) side, 2 acyl side, 3 side chain; on linkers, the order of the positions; unused ones are H or OH. Side chains are listed from the residue outwards. Ends that are not written are not given here. * marks the point of attachment. γGlu = O=C(O)[C@H](CCC(=O)[*:2])N[*:1]; Palmitoyl = CCCCCCCCCCCCCCCC(=O)*
T1: human glucose-dependent insulinotropic peptide (gastric inhibitory polypeptide) receptor (human, UniProt P48546 22-466)
T1 sequence (looked up): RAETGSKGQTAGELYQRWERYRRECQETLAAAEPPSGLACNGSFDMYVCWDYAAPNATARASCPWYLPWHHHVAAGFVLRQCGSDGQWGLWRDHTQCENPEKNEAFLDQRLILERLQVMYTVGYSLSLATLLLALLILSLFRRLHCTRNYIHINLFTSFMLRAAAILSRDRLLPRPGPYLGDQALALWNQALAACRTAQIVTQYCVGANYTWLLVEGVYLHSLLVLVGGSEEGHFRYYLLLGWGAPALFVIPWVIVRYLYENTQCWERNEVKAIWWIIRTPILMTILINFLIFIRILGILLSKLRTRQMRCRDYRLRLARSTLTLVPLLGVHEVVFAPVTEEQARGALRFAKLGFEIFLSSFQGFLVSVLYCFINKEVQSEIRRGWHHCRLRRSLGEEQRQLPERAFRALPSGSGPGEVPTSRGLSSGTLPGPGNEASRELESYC

T2: mouse GLP-1 receptor (mouse, UniProt O35659 22-463)
T2 sequence (looked up): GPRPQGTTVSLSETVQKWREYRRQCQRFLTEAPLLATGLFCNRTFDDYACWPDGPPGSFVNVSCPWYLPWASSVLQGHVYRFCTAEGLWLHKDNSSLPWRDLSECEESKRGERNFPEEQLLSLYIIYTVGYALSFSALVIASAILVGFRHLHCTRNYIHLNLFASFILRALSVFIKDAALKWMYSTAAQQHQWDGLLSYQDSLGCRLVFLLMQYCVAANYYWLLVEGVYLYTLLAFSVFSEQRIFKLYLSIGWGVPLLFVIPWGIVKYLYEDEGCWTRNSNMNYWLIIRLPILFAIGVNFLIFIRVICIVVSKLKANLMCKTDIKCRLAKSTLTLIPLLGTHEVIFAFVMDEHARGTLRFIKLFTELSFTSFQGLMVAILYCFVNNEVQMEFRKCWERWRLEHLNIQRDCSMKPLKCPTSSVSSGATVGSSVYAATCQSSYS

T3: rat GLP-1 receptor (rat, UniProt P32301 22-463)
T3 sequence (looked up): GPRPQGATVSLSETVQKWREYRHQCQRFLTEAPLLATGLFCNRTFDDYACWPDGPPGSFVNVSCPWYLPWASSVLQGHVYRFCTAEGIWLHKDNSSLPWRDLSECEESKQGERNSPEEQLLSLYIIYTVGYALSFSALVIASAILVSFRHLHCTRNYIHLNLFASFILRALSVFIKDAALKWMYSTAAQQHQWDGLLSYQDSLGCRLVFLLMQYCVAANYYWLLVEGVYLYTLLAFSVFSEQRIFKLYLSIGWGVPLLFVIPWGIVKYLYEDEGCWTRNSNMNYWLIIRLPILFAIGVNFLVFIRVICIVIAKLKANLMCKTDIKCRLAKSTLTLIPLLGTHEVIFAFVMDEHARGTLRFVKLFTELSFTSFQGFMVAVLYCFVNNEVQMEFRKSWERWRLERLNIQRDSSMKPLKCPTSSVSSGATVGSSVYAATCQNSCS

T4: human glucose-dependent insulinotropic peptide (gastric inhibitory polypeptide) receptor (human) (UniProt P48546)
T4 sequence (looked up): T1 sequence (looked up)

B1: G796 (peptide)
peptide: HSQGTFTSDKSSYLDSRRARDFVAWLEAGG
modifications: X10 = K(gE-palm); C-terminal amide
B2: g848 (peptide)
peptide: HSQGTFTSDK([γGlu-Palmitoyl])SRYLDSERARDFVAWLEAGG-NH2
modifications: N-terminus assumed
SMILES: CCCCCCCCCCCCCCCC(=O)N[C@@H](CCC(=O)NCCCC[C@H](NC(=O)[C@H](CC(=O)O)NC(=O)[C@H](CO)NC(=O)[C@@H](NC(=O)[C@H](Cc1ccccc1)NC(=O)[C@@H](NC(=O)CNC(=O)[C@H](CCC(N)=O)NC(=O)[C@H](CO)NC(=O)[C@@H](N)Cc1c[nH]cn1)[C@@H](C)O)[C@@H](C)O)C(=O)N[C@@H](CO)C(=O)N[C@@H](CCCNC(=N)N)C(=O)N[C@@H](Cc1ccc(O)cc1)C(=O)N[C@@H](CC(C)C)C(=O)N[C@@H](CC(=O)O)C(=O)N[C@@H](CO)C(=O)N[C@@H](CCC(=O)O)C(=O)N[C@@H](CCCNC(=N)N)C(=O)N[C@@H](C)C(=O)N[C@@H](CCCNC(=N)N)C(=O)N[C@@H](CC(=O)O)C(=O)N[C@@H](Cc1ccccc1)C(=O)N[C@H](C(=O)N[C@@H](C)C(=O)N[C@@H](Cc1c[nH]c2ccccc12)C(=O)N[C@@H](CC(C)C)C(=O)N[C@@H](CCC(=O)O)C(=O)N[C@@H](C)C(=O)NCC(=O)NCC(N)=O)C(C)C)C(=O)O
B3: G812 (peptide)
peptide: HSQGTFTSDKSKYLEGQAAKEFIAWLEKGR
modifications: X10 = K(gE-palm); C-terminal amide
B4: G931 (peptide)
peptide: HSQGTFTSDYSKK([γGlu-Palmitoyl])LDSERARDFVAWLVAGG-OH
modifications: N-terminus assumed
SMILES: CCCCCCCCCCCCCCCC(=O)N[C@@H](CCC(=O)NCCCC[C@H](NC(=O)[C@H](CCCCN)NC(=O)[C@H](CO)NC(=O)[C@H](Cc1ccc(O)cc1)NC(=O)[C@H](CC(=O)O)NC(=O)[C@H](CO)NC(=O)[C@@H](NC(=O)[C@H](Cc1ccccc1)NC(=O)[C@@H](NC(=O)CNC(=O)[C@H](CCC(N)=O)NC(=O)[C@H](CO)NC(=O)[C@@H](N)Cc1c[nH]cn1)[C@@H](C)O)[C@@H](C)O)C(=O)N[C@@H](CC(C)C)C(=O)N[C@@H](CC(=O)O)C(=O)N[C@@H](CO)C(=O)N[C@@H](CCC(=O)O)C(=O)N[C@@H](CCCNC(=N)N)C(=O)N[C@@H](C)C(=O)N[C@@H](CCCNC(=N)N)C(=O)N[C@@H](CC(=O)O)C(=O)N[C@@H](Cc1ccccc1)C(=O)N[C@H](C(=O)N[C@@H](C)C(=O)N[C@@H](Cc1c[nH]c2ccccc12)C(=O)N[C@@H](CC(C)C)C(=O)N[C@H](C(=O)N[C@@H](C)C(=O)NCC(=O)NCC(=O)O)C(C)C)C(C)C)C(=O)O
B5: g319 (peptide)
peptide: HSQGTFTSDYSKYLDSRRAQDFVQWLVAGGPSSGAPPPSK-NH2
B6: G849 (peptide)
peptide: B1 peptide with S12R, R18S
modifications: X10 = K(gE-palm); C-terminal amide
B7: G380 (peptide)
peptide: HGQGTFTSDYSKYLDSK([γGlu-Palmitoyl])RAQDFVQWLVAGG-NH2
modifications: N-terminus assumed
SMILES: CCCCCCCCCCCCCCCC(=O)N[C@@H](CCC(=O)NCCCC[C@H](NC(=O)[C@H](CO)NC(=O)[C@H](CC(=O)O)NC(=O)[C@H](CC(C)C)NC(=O)[C@H](Cc1ccc(O)cc1)NC(=O)[C@H](CCCCN)NC(=O)[C@H](CO)NC(=O)[C@H](Cc1ccc(O)cc1)NC(=O)[C@H](CC(=O)O)NC(=O)[C@H](CO)NC(=O)[C@@H](NC(=O)[C@H](Cc1ccccc1)NC(=O)[C@@H](NC(=O)CNC(=O)[C@H](CCC(N)=O)NC(=O)CNC(=O)[C@@H](N)Cc1c[nH]cn1)[C@@H](C)O)[C@@H](C)O)C(=O)N[C@@H](CCCNC(=N)N)C(=O)N[C@@H](C)C(=O)N[C@@H](CCC(N)=O)C(=O)N[C@@H](CC(=O)O)C(=O)N[C@@H](Cc1ccccc1)C(=O)N[C@H](C(=O)N[C@@H](CCC(N)=O)C(=O)N[C@@H](Cc1c[nH]c2ccccc12)C(=O)N[C@@H](CC(C)C)C(=O)N[C@H](C(=O)N[C@@H](C)C(=O)NCC(=O)NCC(N)=O)C(C)C)C(C)C)C(=O)O
B8: g320 (peptide)
peptide: HSQGTFTSDYSKYLDSRRAQDFVQWLVAGGPSSGAPPPSK(Palmitoyl)-NH2

Experiments:
human glucagon receptor [1] = biological target: T5, human glucagon receptor (human, UniProt P47871 26-477); assay: cell-based or functional assay
human GLP-1 receptor [2] = biological target: T6, human GLP-1 receptor (human, UniProt P43220 24-463); assay: cell-based or functional assay
[3] = biological target: T1, human glucose-dependent insulinotropic …; assay: cell-based or functional assay
human glucagon receptor [4] = biological target: T5, human glucagon receptor; assay: cell-based or functional assay; remark: listed apart in the source
human GLP-1 receptor [5] = biological target: T6, human GLP-1 receptor; assay: cell-based or functional assay; remark: listed apart in the source
[6] = biological target: T1, human glucose-dependent insulinotropic …; assay: cell-based or functional assay; remark: listed apart in the source
human glucagon receptor [7] = biological target: T5, human glucagon receptor; assay: cell-based or functional assay; remark: listed apart in the source
human GLP-1 receptor [8] = biological target: T6, human GLP-1 receptor; assay: cell-based or functional assay; remark: listed apart in the source
mouse GLP-1 receptor = biological target: T2, mouse GLP-1 receptor; assay: cell-based or functional assay
mouse glucagon receptor = mouse glucagon receptor (mouse, UniProt Q61606 27-485); assay: cell-based or functional assay
rat GLP-1 receptor = biological target: T3, rat GLP-1 receptor; assay: cell-based or functional assay
rat glucagon receptor = rat glucagon receptor (rat, UniProt P30082 27-485); assay: cell-based or functional assay
human glucagon receptor [9] = biological target: T5, human glucagon receptor; assay: cell-based or functional assay; remark: listed apart in the source
human GLP-1 receptor [10] = biological target: T6, human GLP-1 receptor; assay: cell-based or functional assay; remark: listed apart in the source
[11] = biological target: human GLP-1 receptor (human) (UniProt P43220); assay: cell-based or functional assay
[12] = biological target: human glucagon receptor (human) (UniProt P47871); assay: cell-based or functional assay
human GLP-1 receptor [13] = biological target: T6, human GLP-1 receptor; assay: cell-based or functional assay; remark: listed apart in the source
[14] = biological target: human serum albumin (human) (UniProt P02768); assay: calculated from the variation in cAMP generation with the HSA concentration
[15] = biological target: T4, human glucose-dependent insulinotropic peptide (gastric inhibitory polypeptide) receptor (human); assay: cell-based or functional assay

Sequence of mouse glucagon receptor (Q61606 27-485): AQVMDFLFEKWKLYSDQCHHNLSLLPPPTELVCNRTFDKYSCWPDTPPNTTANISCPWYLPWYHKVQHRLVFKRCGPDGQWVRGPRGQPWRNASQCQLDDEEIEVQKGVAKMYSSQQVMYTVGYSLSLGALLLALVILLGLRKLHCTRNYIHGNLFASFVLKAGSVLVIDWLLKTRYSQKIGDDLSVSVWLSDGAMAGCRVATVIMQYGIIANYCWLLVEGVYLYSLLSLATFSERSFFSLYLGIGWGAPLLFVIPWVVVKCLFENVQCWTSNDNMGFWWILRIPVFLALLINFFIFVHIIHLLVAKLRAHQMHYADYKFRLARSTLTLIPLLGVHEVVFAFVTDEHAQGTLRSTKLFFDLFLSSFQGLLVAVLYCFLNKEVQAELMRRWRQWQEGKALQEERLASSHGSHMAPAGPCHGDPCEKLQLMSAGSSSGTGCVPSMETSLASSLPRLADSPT
Sequence of rat glucagon receptor (P30082 27-485): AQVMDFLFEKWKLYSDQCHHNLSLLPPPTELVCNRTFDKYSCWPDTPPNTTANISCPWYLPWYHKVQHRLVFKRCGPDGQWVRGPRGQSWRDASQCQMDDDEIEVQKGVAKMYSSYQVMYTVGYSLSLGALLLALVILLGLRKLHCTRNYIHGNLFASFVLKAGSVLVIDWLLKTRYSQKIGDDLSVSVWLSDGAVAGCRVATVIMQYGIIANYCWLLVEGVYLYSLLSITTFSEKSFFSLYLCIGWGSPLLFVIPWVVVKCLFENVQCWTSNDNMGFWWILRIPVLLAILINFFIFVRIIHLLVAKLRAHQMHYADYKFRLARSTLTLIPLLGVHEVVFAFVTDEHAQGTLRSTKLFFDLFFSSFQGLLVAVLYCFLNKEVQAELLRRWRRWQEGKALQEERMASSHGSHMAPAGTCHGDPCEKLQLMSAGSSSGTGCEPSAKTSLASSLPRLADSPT
T5 sequence (P47871 26-477): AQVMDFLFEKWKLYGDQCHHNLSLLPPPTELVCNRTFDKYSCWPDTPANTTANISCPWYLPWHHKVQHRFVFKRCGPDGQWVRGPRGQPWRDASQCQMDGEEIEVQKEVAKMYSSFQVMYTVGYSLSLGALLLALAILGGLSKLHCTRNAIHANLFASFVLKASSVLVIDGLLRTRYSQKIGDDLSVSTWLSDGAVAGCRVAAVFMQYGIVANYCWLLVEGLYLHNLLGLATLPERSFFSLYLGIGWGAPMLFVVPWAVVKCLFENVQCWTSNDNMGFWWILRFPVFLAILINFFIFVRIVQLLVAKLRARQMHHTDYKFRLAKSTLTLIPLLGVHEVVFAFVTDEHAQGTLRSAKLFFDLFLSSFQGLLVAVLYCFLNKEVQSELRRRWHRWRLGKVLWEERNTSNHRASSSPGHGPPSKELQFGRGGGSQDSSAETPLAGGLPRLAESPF
Sequence of human GLP-1 receptor (human) (P43220 24-463): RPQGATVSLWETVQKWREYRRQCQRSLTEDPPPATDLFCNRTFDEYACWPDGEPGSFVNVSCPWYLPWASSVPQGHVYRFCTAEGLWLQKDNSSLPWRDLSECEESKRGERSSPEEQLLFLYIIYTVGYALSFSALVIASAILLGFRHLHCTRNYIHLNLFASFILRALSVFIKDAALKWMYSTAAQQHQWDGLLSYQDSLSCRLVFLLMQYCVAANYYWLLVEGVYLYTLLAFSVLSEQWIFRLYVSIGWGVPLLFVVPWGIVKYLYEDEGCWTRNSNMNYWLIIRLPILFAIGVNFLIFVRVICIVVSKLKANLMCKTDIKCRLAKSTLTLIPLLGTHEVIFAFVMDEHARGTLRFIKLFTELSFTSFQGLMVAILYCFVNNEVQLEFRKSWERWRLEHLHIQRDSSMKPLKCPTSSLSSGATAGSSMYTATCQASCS
Sequence of human glucagon receptor (human) (P47871 26-477): as the sequence (P47871 26-477) above
Sequence of human serum albumin (human) (P02768 25-609 limits assumed): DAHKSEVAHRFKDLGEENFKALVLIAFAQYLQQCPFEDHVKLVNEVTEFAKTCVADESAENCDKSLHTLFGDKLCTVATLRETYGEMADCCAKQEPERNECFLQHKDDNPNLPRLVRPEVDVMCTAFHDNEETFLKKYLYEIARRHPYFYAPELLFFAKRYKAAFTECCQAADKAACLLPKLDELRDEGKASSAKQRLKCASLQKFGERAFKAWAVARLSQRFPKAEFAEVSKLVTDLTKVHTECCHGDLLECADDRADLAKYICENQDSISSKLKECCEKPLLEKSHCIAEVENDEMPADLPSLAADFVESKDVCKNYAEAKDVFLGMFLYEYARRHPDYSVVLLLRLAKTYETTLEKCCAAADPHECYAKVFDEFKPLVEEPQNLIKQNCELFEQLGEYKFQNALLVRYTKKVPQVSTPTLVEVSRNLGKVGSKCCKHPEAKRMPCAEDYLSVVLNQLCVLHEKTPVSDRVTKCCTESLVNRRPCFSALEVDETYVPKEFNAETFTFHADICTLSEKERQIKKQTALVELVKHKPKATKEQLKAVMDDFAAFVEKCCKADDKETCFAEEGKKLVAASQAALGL

Binder | cAMP EC50 (assay 1) (human glucagon receptor [1]) | cAMP EC50 (assay 1) (human GLP-1 receptor [2]) | cAMP EC50 (assay 1) [3] | cAMP EC50 (assay 1) (human glucagon receptor [4]) | cAMP EC50 (assay 1) (human GLP-1 receptor [5]) | cAMP EC50 (assay 1) [6] | cAMP EC50 (assay 2, 4.4% human serum albumin) (human glucagon receptor [7]) | cAMP EC50 (assay 2, 4.4% human serum albumin) (human GLP-1 receptor [8]) | cAMP EC50 (assay 2, 3.2% mouse serum albumin) (mouse GLP-1 receptor) | cAMP EC50 (assay 2, 3.2% mouse serum albumin) (mouse glucagon receptor) | cAMP EC50 (assay 2, 3.2% rat serum albumin) (rat GLP-1 receptor) | cAMP EC50 (assay 2, 3.2% rat serum albumin) (rat glucagon receptor) | also measured
B1 | 0.00176 nM | 0.013 nM | 14 nM | 0.00181 nM | 0.014 nM | 17.4 nM | 0.053 nM | 0.14 nM | 0.13 nM | 0.034 nM | 0.023 nM | 2 nM | –
B2 | – | – | – | 0.000966 nM | 0.00942 nM | 2.77 nM | – | – | – | – | – | – | –
B3 | 0.00817 nM | 0.011 nM | 2.7 nM | – | – | – | 0.764 nM | 0.316 nM | 0.13 nM | 0.947 nM | 0.019 nM | 14.1 nM | –
B4 | – | – | – | – | – | – | – | – | – | – | – | – | cAMP EC50 (assay 1) (human glucagon receptor [9]): 0.0178 nM; cAMP EC50 (assay 1) (human GLP-1 receptor [10]): 0.13 nM
B5 | – | – | – | – | – | – | – | – | – | – | – | – | cAMP EC50 (assay 1) [11]: 0.0361 nM; cAMP EC50 (assay 1) [12]: 0.0104 nM
B6 | 0.00226 nM | 0.009 nM | 17 nM | – | 0.00907 nM | 18.1 nM | 0.079 nM | 0.172 nM | – | 0.103 nM | 0.044 nM | 4.05 nM | EC50 at the GLP1R at 0% HSA (calculated) (human GLP-1 receptor [13]): 0.002 nM; free peptide at 4.4% HSA [14]: 0.48%
B7 | 0.217 nM | 0.077 nM | 130 nM | 0.362 nM | 0.1 nM | 609 nM | 53.6 nM | 6.54 nM | 15 nM | 576 nM | – | – | –
B8 | – | – | – | – | – | – | – | – | – | – | – | – | cAMP EC50 (assay 1) [11]: 0.00938 nM; cAMP EC50 (assay 1) [12]: 0.0032 nM; cAMP EC50 (assay 1) [15]: 1.01 nM
